Assay results: patent US20050287527A1, “Quantitative ranking of transient ligand binding to target biomolecules” (National Research Council of Canada, priority 2002, published 2005)

Legend:
human prothrombin [1] = target: T1, human prothrombin (Homo sapiens, UniProt P00734); conditions: binding with human prothrombin; previous reports; cited from earlier work
thrombin [2] = target: T2, thrombin (Homo sapiens, UniProt P00734); conditions: cited from earlier work
human prothrombin [3] = target: T1, human prothrombin; test: 15N CPMG NMR relaxation dispersion of peptide ligand with human prothrombin, fitting of koff; type: binding
Procedure: Dried powder of the purified peptide was weighed using a Sartorius Supermicro S4™ balance and dissolved at ˜1.5 mM in an aqueous solution (10% D2O) that was 50 mM in NaCl and 50 mM in sodium phosphate at pH 5.5. Carefully measured volume aliquots of human prothrombin at a stock concentration of 0.3 mM were added to the peptide solution to produce molar ratios of ˜1:45, ˜1:35, and ˜1:30 for the prothrombin and peptide concentrations, respectively.
The core of the NMR relaxation dispersion measurements is the relaxation-compensated CPMG pulse scheme (FIG. 1) (Millet, O., Loria, J. P., Kroenke, C. D., Pons, M., and Palmer, A. G. (2000) J.Am.Chem.Soc. 122, 2867-2877; and Loria, J. P., Rance, M., and Palmer, A. G. (1999) J.Am.Chem.Soc. 121, 2331-2332). A train of ^15N 180° pulses with a separation of 1 ms is applied at 100 ppm off the center of the HSQC spectrum at the beginning of the recycle delay d1 such that the total number of ^15N 180° pulses, 4N, is kept the same for all experiments with different CPMG pulse repetition rates. An XY-16 180° pulse train (Gullion, T., Baker, D. B., and Conradi, M. S. (1990) J.Magn.Reson. 89, 479-484) is also applied to both the ^1H and ^15N nuclei during the two INEPT periods, which limits the decay of exchange-broadened ligand resonances. Further enhancement in sensitivity was achieved by using the 3919 WATERGATE sequence for water suppression (Piotto, M., Saudek, V., and Sklenar, V. (1992) J.Biomol.NMR 2, 661-665). The 90° and 180° RF pulses are represented by narrow and wide bars, respectively, applied along the +X axis unless specified otherwise. The open rectangles are water-selective soft pulses with duration of 2 ms. During data acquisition, ^15N decoupling is achieved using a GARP sequence (Shaka, A. J., Barker, P. B., and Freeman, R. (1985) J.Magn.Reson. 64, 547-552) with an RF field of 1.0 kHz (at 500 MHz) or 1.2 kHz (at 800 MHz). The delays are: Δ=2.7 ms, τ=1 ms, d2=d1-4(N-n)τ and τCPMG=(T/4n−pw180N), where T is the total duration of the ^15N CPMG pulse train and pw^180N is the width of the ^15N 180° pulse. Sinebell-shaped gradient pulses with a duration of 1 ms are used with gradient strengths of g1=5 G/cm, g2=6 G/cm, g3=1.2 G/cm, g4=6 G/cm, and g5=10 G/cm. The phases of some RF pulses are the same as those reported previously with φ1=+X−X, φ2=4(+X) 4(−X) and φ3=2(+X) 2(+Y) 2(−X) 2(−Y) (Millet, O., Loria, J. P., Kroenke, C. D., Pons, M., and Palmer, A. G. (2000) J.Am. Chem. Soc. 122, 2867-2877), except that the phases for the last ^15N 90° pulse, the WATERGATE sequence and the RF receiver are cycled as φ4=4(+X) 4(−X), φ5=8(+X) 8(+Y), φ6=8(−X) 8(−Y) and receiver=(+X−X−X+X) 2(−X+X+X−X) (+X−X−X+X). Phase-sensitive ^1H—^15N HSQC spectra were obtained by incrementing φ4, according to the States-TPPI scheme (Marion, D., Ikura, M., Tschudin, R., and Bax, A. (1989) J.Magn.Reson. 85, 393-). […] NMR data were collected at ^15N frequencies of 50.684 and 81.076 MHz using Bruker Avance/DRX 500 and 800 MHz NMR spectrometers. The total length of the ^15N CPMG pulse train, T (FIG. 1), is kept at a constant value of 40 ms and the total number (4N) of the ^15N CPMG 1800 pulses was set to 100.
For the specific application herein, values for koff, kon′, koff^1, koff^2, kon^−1, k1, k2, R2b(500 MHz), R2b(800 MHz), δωb, δωb1 and δωb2 (FIG. 2) were fitted as independent variables. Values kon^−2, pb, pb1, pb2, and pf=(1−pb1−pb2), with p standing for the population of the corresponding species, were derived using the condition of microscopic reversibility kijpi=kjipj, where kij denotes the exchange rate constant for the transformation of species i into species j.

thrombin [4] = target: T2, thrombin; test: Inhibition of human thrombin; type: biochemical; conditions: bivalent inhibitor of human thrombin
thrombin [5] = target: T2, thrombin; test: Proteolytic cleavage of FD22 by active thrombin; type: biochemical; set-up: in complex with human α-thrombin; conditions: peptide ~0.9 mM, 50 mM sodium phosphate, 0.2 mM EDTA, pH 5.5, active thrombin added
Procedure: Titration of the thrombin-cleaved FD22 peptide was carried out as follows. The sample of FD22 was concentrated by Speed-Vac to 40 μl and 180 μl of a concentrated thrombin solution were added to give a final thrombin:peptide ratio of approximately 1:20 in 60 mM sodium phosphate buffer, 0.2 mM EDTA, 10% D2O, at pH 5.5. Additional steps of thrombin titrations were carried out by the addition of the human […]-thrombin concentrated to ˜8 mg/ml.
FD22 has the sequence of Phe-Asp45-Pro-Arg-Pro-Gln-Ser50-His-Asn-Asp-Gly-Asp55-Phe-Glu-Glu-Ile-Pro60-Glu-Glu-Tyr-Leu-Gln65 (SEQ ID NO:20) and binds to thrombin via both the anion-binding exosite-I and the catalytic active site. The addition of active thrombin to the peptide FD22 (dissolved at a concentration of ˜0.9 mM in 50 mM sodium phosphate buffer, 10% D2O, 0.2 mM EDTA, at pH 5.5), caused slow and specific proteolytic cleavage at the Arg47-Pro48 peptide bond (taking >60 hours for the cleavage to complete). Upon completion of the cleavage, the sample contains a mixture of two peptides, Phe-Asp45-Pro-Arg (FD22-N) (SEQ ID NO:17) and Pro-Gln-Ser50-His-Asn-Asp-Gly-Asp55-Phe-Glu-Glu-Ile-Pro60-Glu-Glu-Tyr-Leu-Gln65 (FD22-C) (SEQ ID NO:18) that should bind separately to the active site and the anion-binding exosite I of thrombin.

human α-thrombin = target: T3, human α-thrombin (Homo sapiens, UniProt P00734); test: 15N CPMG NMR relaxation dispersion of peptide ligand with human thrombin, fitting of koff; type: binding; conditions: 288 K, two-site exchange
T3 construct: in complex with human α-thrombin

[6] = "linear" three-site exchange model, Phe56, Glu57, Ile59 simultaneously
[7] = general ("full") three-site exchange, Phe56, Glu57, Ile59 simultaneously
[8] = residue Glu57, "linear" three-site exchange model, exchange between bound states

N-acetyl-*Asp-*Phe-*Glu-*Glu-*Ile-Pro-Glu-Glu-Tyr-Leu-Gln [N-acetyl-Hir(55-65), anti-thrombin peptide]
Kd (human prothrombin [1]): 100 to 300 µM | affinity for human thrombin compared with the same site on human prothrombin (thrombin [2]): higher affinity | k1 (human prothrombin [3]; [6]): 560 ± 510 s⁻¹ | kex=k1+k2 (human prothrombin [3]; [6]): 700±500 s^1 | k1 (human prothrombin [3]; [7]): 66 ± 57 s⁻¹ | k2 (human prothrombin [3]; [7]): 110 ± 130 s⁻¹ | kex=k1+k2 (human prothrombin [3]; [7]): 180 ± 150 s⁻¹ | k1 (human prothrombin [3]; [8]): 50 ± 30 s⁻¹ | k2 (human prothrombin [3]; [8]): 150 ± 70 s⁻¹

Phe-Asp45-Pro-Arg-Pro-Gln-Ser50-His-Asn-Asp-Gly-Asp55-Phe-Glu-Glu-Ile-Pro60-Glu-Glu-Tyr-Leu-Gln65 (FDPRPQSHNDGDFEEIPEEYLQ; Anti-thrombin peptide) [FD22]
IC50 (thrombin [4]): ~0.02 µM | time for the cleavage at the Arg47-Pro48 peptide bond to complete (thrombin [5]): > 60 h

Pro-Gln-Ser50-His-Asn-Asp-Gly-Asp55-Phe-Glu-Glu-Ile-Pro60-Glu-Glu-Tyr-Leu-Gln65 (PQSHNDGDFEEIPEEYLQ; Anti-thrombin peptide) [FD22-C]
koff (human α-thrombin; residue Leu64 (FD22-C fragment), simultaneous fit at three α-thrombin concentrations): ~400 s⁻¹ | koff (human α-thrombin; residue Phe56 (FD22-C fragment), highest α-thrombin concentration only): ~400 s⁻¹ | koff (human α-thrombin; residue Tyr63 (FD22-C fragment), simultaneous fit at three α-thrombin concentrations): ~100 s⁻¹
